Results on six molecules are retold here after US20230220057A1 (STAIDSON BEIJING BIOPHARMACEUTICALS, published 2023).

The target in test [1] is T1, human NGF-Fc4 (IgG4-Fc) (human, UniProt P01138 122-241, limits assumed).
T1 construct: not shown: human IgG4 Fc
The experiment in a line: competition ELISA: antibody pre-incubated with human NGF-Fc4, binding to coated TrkA-Fc. How it is done:
TrkA inhibition ELISA assay: The TrkA inhibition ELISA assay was designed to identify the anti-NGF antibodies that have the capability of blocking NGF binding to its receptor TrkA. In this assay, human TrkA-Fc (IgG1-Fc, Sinobiological) was coated at 1 μg/ml in the 96-well plates and incubated overnight at 4° C. Antibodies, from cell culture supernatants or after purified, in different dilutions, were pre-incubated with human NGF-Fc4 (IgG4-Fc) at a final concentration of 70 ng/mL for 2 hours in 37° C. A total of 50 μl of the reaction mixtures were then transferred into the TrkA-Fc coated 96-well plates and incubated in room temperature for 2 hours. After washing, a secondary mouse anti-human IgG4-AP (Southern biotech) was added at a dilution of 1:1000 After one hour in room temperature, the plates were washed, and after adding PNPP substrate, ODs at 405 nm were read.
TrkA inhibition ELISA assay: The optimized anti-NGF antibodies Ab4, Ab6, Ab10, Ab16, Ab36, Ab37, Ab44, Ab45, Ab46, Ab47, Ab48, Ab49, Ab52, Ab54, Ab55, Ab56, Ab57, Ab58, Ab59, Ab60, Ab61 and the reference antibody Tanezumab (Pfizer), a humanized antibody from mouse hybridoma were further analyzed for their abilities to block NGF binding to its receptor TrkA. TrkA inhibition assay was performed as described in Example 1.
In general terms: In an ELISA, binding on a coated surface is turned into a signal by an enzyme label.

Test [2] concerns the target T2, human NGF (R&D system) (human, UniProt P01138 122-241). Put plainly: cell-based or functional assay.
The target in test [3] is T1, human NGF-Fc4 (IgG4-Fc). The experiment in a line: competition ELISA: antibody pre-incubated with human NGF-Fc4, binding to coated p75-Fc. The method, then: p75 inhibition ELISA assay: The p75 inhibition assay was designed to identify anti-NGF antibodies that were capable of inhibiting NGF binding to p75. In this assay, human p75-Fc (IgG1-Fc, Sinobiological) was coated at 1 μg/mL in the 96-well plates and incubated overnight at 4° C. Anti-NGF antibodies, from supernatants directly or after purified, in different dilutions, were pre-incubated with human NGF-Fc4 (IgG4-Fc) at a final concentration of 350 ng/mL for 2 hours in 37° C. A total of 50 μl of the reaction mixtures were then transferred into the p75-Fc coated 96-well plates and incubated in room temperature for 2 hrs. After washing, a secondary mouse anti-human IgG4-AP (Southern biotech) was added at a dilution of 1:1000. After 1 hour in room temperature, the plates were washed, and after adding PNPP substrate, ODs at 405 nm were read.
p75 inhibition ELISA assay: The optimized anti-NGF antibodies Ab4, Ab61, and the reference antibody Tanezumab, a humanized antibody from mouse hybridoma were further analyzed for their abilities to block NGF binding to its receptor p75. P75 inhibition assay was performed as described in Example 1.

The target of test [4] is recombinantly produced human-NGF (human, UniProt P01138 122-241, limits assumed). The experiment in a line: ELISA, human NGF coated, IgG titrated. The method, boiled down:
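Plates coated overnight at 4 °C with recombinant human NGF at 1 μg/ml, blocked with PBS/1% BSA. Serially diluted purified antibodies or 1:1 supernatants bound 2 h at 37 °C; detection with AP anti-human IgG Fc (1:3000, 1 h RT), PNPP substrate, OD 405 nm.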

The next test addresses T3, NT4 (UniProt P34130 81-210).
T3 construct: also called neurotrophin-4
T3 sequence (looked up): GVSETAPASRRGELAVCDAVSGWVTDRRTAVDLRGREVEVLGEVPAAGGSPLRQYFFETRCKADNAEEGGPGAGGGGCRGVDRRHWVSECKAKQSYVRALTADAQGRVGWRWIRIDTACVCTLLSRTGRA
The experiment in a line: ELISA.

In the next test the target is T4, NT3 (UniProt P20783 139-257).
T4 construct: also called neurotrophin-3
T4 sequence (looked up): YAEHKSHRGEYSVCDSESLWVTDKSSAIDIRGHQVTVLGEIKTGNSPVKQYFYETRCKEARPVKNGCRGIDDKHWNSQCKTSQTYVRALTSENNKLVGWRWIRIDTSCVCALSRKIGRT
The experiment in a line: ELISA.

A further test deals with T5, BDNF (UniProt P23560 129-247).
T5 construct: also called brain-derived neurotrophic factor
T5 sequence (looked up): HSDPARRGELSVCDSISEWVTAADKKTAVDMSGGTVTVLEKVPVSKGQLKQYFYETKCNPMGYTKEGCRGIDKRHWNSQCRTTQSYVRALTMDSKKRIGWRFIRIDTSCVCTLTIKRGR
Put plainly: ELISA.

The target of test [5] is T2, human NGF (R&D system). The experiment in a line: cell-based or functional assay. The source holds these as a separate data set.
For test [6], the target named is T2, human NGF (R&D system). The experiment in a line: cell-based or functional assay. This is another data set of the same source.
Test [7] deals with T2, human NGF (R&D system). Put plainly: cell-based or functional assay. The source holds these as a separate data set.

Where two headings read alike, the source gives them in different places.

Sequence of recombinantly produced human-NGF (P01138 122-241 limits assumed): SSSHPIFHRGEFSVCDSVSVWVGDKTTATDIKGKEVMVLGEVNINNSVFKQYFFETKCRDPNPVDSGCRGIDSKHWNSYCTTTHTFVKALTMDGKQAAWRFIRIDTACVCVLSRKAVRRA
T1 sequence (P01138 122-241 limits assumed): as above
T2 sequence (P01138 122-241 limits assumed): as above

B1: Tanezumab (antibody, part only; not given: constant regions, V domains shown, not shown: another chain or arm of the molecule)
VH: QVQLQESGPGLVKPSETLSLTCTVSGFSLIGYDLNWIRQPPGKGLEWIGIIWGDGTTDYNSAVKSRVTISKDTSKNQFSLKLSSVTAADTAVYYCARGGYWYATSYYFDYWGQGTLVTVSS
VL: DIQMTQSPSSLSASVGDRVTITCRASQSISNNLNWYQQKPGKAPKLLIYYTSRFHSGVPSRFSGSGSGTDFTFTISSLQPEDIATYYCQQEHTLPYTFGQGTKLEIK
For B1, in the test with human NGF-Fc4 (IgG4-Fc) [1], the IC50 is 60.2 ng/mL. In the test with human NGF (R&D system) [2], this molecule had a Chicken DRG Neurite Outgrowth Inhibition Assay IC50 of 0.0727 nM and a TF1 Cell Proliferation Inhibition Assay IC50 of 0.17 nM. Besides, the 50% inhibitory concentration (IC50) with human NGF-Fc4 (IgG4-Fc) [3] was 525 ng/mL. Besides, in [4], the EC50 was determined as 0.00937 ng/mL.

B2: Ab6 (antibody, human IgG1, V domains shown)
VH: EVQLVQSGAEVKKPGATVKISCKVSGYTFITYWISWVQQAPGKGLEWMGAIDPSDSDARYSPSFQGRVTITADTSTDTAYMELSSLRSEDTAVYYCAKSDPGYSGYSLLYGFDSWGQGTLVTVSS
VL: DVVMTQSPLSLPVTLGQPASISCRSSQSLVQRNGNTYLSWFQQRPGQPPRLLIYQVSNRYSGVPDRFSGSGSGTDFTLKISRVEAEDVGVYYCGQGAHLPLTFGQGTKVEIK
In the case of B2, the half-maximal inhibitory concentration (IC50) with human NGF-Fc4 (IgG4-Fc) [1] came to 76.9 ng/mL. Also, the binding result with NT4, in the test with NT3 and in the test with BDNF was “no binding (tested: 100 µg/mL)” throughout. Further, in the test with human NGF (R&D system) [5], the “TF1 Cell Proliferation Inhibition Assay IC50” value was determined as 0.17 nM. Moreover, in test [4], the EC50 was 0.021 ng/mL.

B3: Ab54 (antibody, human IgG1, V domains shown)
VH: EVQLVQSGAEVKKPGESLKISCKISGYSFITYWISWVRQMPGKGLEWMGAIDPSDSDARYSPSFQGQVTISADKSISTAYLQWSSLKASDTAMYYCAKSDPGYSGYSLLYGFDSWGQGTLVTVSS
VL: DVVMTQSPLSLPVTLGQPASISCRSSQSLVQRNGNTYLSWYQQRPGQSPRLLIYQVSNRYSGVPDRFSGSGSGTDFTLKISRVEAEDVGVYYCGQGAHLPLTFGQGTKVEIK
For the molecule B3, in the test with human NGF-Fc4 (IgG4-Fc) [1], the IC50 came out at 70.2 ng/mL. In addition, the binding result in the test with NT4, with NT3 and with BDNF was “no binding (tested: 100 µg/mL)” in each case. Further, in the test with human NGF (R&D system) [5], the “TF1 Cell Proliferation Inhibition Assay IC50” value amounted to 0.183 nM. For the same molecule, the half-maximal effective concentration (EC50) in [4] came out at 0.0257 ng/mL.

B4: Ab61 (antibody, human IgG1, V domains shown)
VH: EVQLVQSGAEVKKPGATVKISCKVSGYTFITYWISWVQQAPGKGLEWMGAIDPSDSDARYSPSFQGRVTITADTSTDTAYMELSSLRSEDTAVYYCAKSDPGYSGYSLLYGFDSWGQGTLVTVSS
VL: DVVMTQSPLSLPVTLGQPASISCRSSQSLVQRNANTYLSWYQQRPGQSPRLLIYQVSNRYSGVPDRFSGSGSGTDFTLKISRVEAEDVGVYYCGQGAHLPLTFGQGTKVEIK
Consider B4, for which the “ERK1/2 Signaling Pathway Inhibition Assay IC50 (PC12 cells)” value in the test with human NGF (R&D system) [6] is 0.175 nM. Further, the half-inhibitory concentration (IC50) with human NGF-Fc4 (IgG4-Fc) [1] amounted to 70 ng/mL; in the test with human NGF-Fc4 (IgG4-Fc) [3], 577 ng/mL. The “Chicken DRG Neurite Outgrowth Inhibition Assay IC50” value in the test with human NGF (R&D system) [7] worked out at 0.0786 nM. In addition, the “TF1 Cell Proliferation Inhibition Assay IC50” value in the test with human NGF (R&D system) [5] came out at 0.346 nM. The EC50 in test [4] stood at 0.014 ng/mL.

B5: Ab36 (antibody, human IgG1, V domains shown)
VH: EVQLVQSGAEVKKPGATVKISCKVSGYTFITYWISWVQQAPGKGLEWMGAIDPSDSDARYSPSFQGRVTITADKSTDTAYMELSSLRSEDTAVYYCAKSDPGYSGYSLLYGFDSWGQGTLVTVSS
VL: DVVMTQSPLSLPVTLGQPASISCRSSQSLVQRNGNTYLSWFQQRPGQPPRLLIYQVSNRYSGVPDRFSGSGSGTDFTLKISRVEAEDVGVYYCGQGAHLPLTFGQGTKVEIK
As to B5, the 50% inhibitory concentration (IC50) with human NGF-Fc4 (IgG4-Fc) [1] amounted to 89.9 ng/mL. Besides, the binding result with NT4, with NT3 and in the test with BDNF was “no binding (tested: 100 µg/mL)” throughout. Also, the “TF1 Cell Proliferation Inhibition Assay IC50” value with human NGF (R&D system) [5] came to 0.234 nM. Moreover, the EC50 in test [4] came out at 0.0218 ng/mL.

B6: Ab4 (antibody, human IgG1, V domains shown)
VH: EVQLVQSGAEVKKPGATVKISCKVSGYTFITYWISWVQQAPGKGLEWMGAIDPSDSDARYSPSFQGRVTITADTSTDTAYMELSSLRSEDTAVYYCAKSDPGYSGYSLLYGFDSWGQGTLVTVSS
VL: DVVMTQSPLSLPVTLGQPASISCRSSQSLVQRNGNTYLSWYQQRPGQSPRLLIYQVSNRYSGVPDRFSGSGSGTDFTLKISRVEAEDVGVYYCGQGAHLPLTFGQGTKVEIK
Regarding B6, in the test with human NGF (R&D system) [6], the “ERK1/2 Signaling Pathway Inhibition Assay IC50 (PC12 cells)” value worked out at 0.131 nM. Further, the IC50 amounted to 74.6 ng/mL with human NGF-Fc4 (IgG4-Fc) [1] and 481 ng/mL with human NGF-Fc4 (IgG4-Fc) [3]. The binding result in the test with NT4, with NT3 and with BDNF was “no binding (tested: 100 µg/mL)” in each case. Besides, the “Chicken DRG Neurite Outgrowth Inhibition Assay IC50” value with human NGF (R&D system) [7] was 0.0663 nM. Also, in the test with human NGF (R&D system) [5], the “TF1 Cell Proliferation Inhibition Assay IC50” value came to 0.174 nM. The half-maximal effective concentration (EC50) in [4] stood at 0.0124 ng/mL.

A word on the IC50: it is the point on the concentration scale where inhibition reaches its midpoint. Read a high IC50 as weaker potency in that assay. As usually defined, the EC50 is the concentration at which the effect is half-maximal.
